The text below walks through data of PMC2991502 (Cytoskeleton (Hoboken, N.J.), 2010).

The assay deals with Rabbit skeletal muscle actin (rabbit, UniProt P68135 1-377). Briefly: co-sedimentation.

B1: FRL2 FH1-FH2 I649A (amino acids 447-945 of the mouse protein) (domain or fragment)
chain: TSNQVHTLRRLIKEKEEAFQRRCHLEPSARGLESMGGEALARVGPTELTEGIPPSDLDLLAPAPPTEETLPLPPPPAPPLPPPPPPLPDKCPPAPPLPGAAPSVVLTVGLSAIRIKKPIKTKFRLPVFNWTALKPNQINGTVFSELDDEKILEDLDLDRFEELFKTKAQGPALDLICSKNKTAQKAASKVTLLEANRAKNLAATLRKAGRSAEEICRAIHTFDLQTLPVDFVECLMRFLPTEAEVKLLRQYERERQPLEELAAEDRFMLLFSKVERLTQRMAGMAFLGNFQDNLQMLTPQLNAIIAASASVKSSQKLKQMLEIILALGNYMNSSKRGAVYGFKLQSLDLLLDTKSTDRKMTLLHFIALTVKEKYPELANFWQELHFVEKAAAVSLENVLLDVKELGRGMELIRRECSIHDNSVLRNFLSTNEGKLDKLQRDAKTAEEAYNAVVRYFGESPKTTPPSVFFPVFVRFIRSYKEAEQENEARKKQEEVMREK
For the molecule B1, the binding result is on record as “binds”.
